For one experiment, the target named is CaV2.1-F1406C (human). Briefly: co-IP; HEK293T cells coexpressing the two proteins, 10 uM MG132 for 24 h; lysates immunoprecipitated with anti-Myc on protein A/G sepharose, 16 h at 4 C; immunoblot. A general note: Immunoblotting shows a protein as a band on a membrane.
The target in experiment [1] is Myc-tagged human long carboxy-terminal CaV2.1 (CaV2.1-6myc) (human) (UniProt O00555). The experiment is described as above.

Our source for the normalized coimmunoprecipitated Pin1 protein level (relative to CaV2.1 WT) values is PMC11603662.

CaV2.1-F1406C (human), sequence (O00555 whole entry, stated change not applied): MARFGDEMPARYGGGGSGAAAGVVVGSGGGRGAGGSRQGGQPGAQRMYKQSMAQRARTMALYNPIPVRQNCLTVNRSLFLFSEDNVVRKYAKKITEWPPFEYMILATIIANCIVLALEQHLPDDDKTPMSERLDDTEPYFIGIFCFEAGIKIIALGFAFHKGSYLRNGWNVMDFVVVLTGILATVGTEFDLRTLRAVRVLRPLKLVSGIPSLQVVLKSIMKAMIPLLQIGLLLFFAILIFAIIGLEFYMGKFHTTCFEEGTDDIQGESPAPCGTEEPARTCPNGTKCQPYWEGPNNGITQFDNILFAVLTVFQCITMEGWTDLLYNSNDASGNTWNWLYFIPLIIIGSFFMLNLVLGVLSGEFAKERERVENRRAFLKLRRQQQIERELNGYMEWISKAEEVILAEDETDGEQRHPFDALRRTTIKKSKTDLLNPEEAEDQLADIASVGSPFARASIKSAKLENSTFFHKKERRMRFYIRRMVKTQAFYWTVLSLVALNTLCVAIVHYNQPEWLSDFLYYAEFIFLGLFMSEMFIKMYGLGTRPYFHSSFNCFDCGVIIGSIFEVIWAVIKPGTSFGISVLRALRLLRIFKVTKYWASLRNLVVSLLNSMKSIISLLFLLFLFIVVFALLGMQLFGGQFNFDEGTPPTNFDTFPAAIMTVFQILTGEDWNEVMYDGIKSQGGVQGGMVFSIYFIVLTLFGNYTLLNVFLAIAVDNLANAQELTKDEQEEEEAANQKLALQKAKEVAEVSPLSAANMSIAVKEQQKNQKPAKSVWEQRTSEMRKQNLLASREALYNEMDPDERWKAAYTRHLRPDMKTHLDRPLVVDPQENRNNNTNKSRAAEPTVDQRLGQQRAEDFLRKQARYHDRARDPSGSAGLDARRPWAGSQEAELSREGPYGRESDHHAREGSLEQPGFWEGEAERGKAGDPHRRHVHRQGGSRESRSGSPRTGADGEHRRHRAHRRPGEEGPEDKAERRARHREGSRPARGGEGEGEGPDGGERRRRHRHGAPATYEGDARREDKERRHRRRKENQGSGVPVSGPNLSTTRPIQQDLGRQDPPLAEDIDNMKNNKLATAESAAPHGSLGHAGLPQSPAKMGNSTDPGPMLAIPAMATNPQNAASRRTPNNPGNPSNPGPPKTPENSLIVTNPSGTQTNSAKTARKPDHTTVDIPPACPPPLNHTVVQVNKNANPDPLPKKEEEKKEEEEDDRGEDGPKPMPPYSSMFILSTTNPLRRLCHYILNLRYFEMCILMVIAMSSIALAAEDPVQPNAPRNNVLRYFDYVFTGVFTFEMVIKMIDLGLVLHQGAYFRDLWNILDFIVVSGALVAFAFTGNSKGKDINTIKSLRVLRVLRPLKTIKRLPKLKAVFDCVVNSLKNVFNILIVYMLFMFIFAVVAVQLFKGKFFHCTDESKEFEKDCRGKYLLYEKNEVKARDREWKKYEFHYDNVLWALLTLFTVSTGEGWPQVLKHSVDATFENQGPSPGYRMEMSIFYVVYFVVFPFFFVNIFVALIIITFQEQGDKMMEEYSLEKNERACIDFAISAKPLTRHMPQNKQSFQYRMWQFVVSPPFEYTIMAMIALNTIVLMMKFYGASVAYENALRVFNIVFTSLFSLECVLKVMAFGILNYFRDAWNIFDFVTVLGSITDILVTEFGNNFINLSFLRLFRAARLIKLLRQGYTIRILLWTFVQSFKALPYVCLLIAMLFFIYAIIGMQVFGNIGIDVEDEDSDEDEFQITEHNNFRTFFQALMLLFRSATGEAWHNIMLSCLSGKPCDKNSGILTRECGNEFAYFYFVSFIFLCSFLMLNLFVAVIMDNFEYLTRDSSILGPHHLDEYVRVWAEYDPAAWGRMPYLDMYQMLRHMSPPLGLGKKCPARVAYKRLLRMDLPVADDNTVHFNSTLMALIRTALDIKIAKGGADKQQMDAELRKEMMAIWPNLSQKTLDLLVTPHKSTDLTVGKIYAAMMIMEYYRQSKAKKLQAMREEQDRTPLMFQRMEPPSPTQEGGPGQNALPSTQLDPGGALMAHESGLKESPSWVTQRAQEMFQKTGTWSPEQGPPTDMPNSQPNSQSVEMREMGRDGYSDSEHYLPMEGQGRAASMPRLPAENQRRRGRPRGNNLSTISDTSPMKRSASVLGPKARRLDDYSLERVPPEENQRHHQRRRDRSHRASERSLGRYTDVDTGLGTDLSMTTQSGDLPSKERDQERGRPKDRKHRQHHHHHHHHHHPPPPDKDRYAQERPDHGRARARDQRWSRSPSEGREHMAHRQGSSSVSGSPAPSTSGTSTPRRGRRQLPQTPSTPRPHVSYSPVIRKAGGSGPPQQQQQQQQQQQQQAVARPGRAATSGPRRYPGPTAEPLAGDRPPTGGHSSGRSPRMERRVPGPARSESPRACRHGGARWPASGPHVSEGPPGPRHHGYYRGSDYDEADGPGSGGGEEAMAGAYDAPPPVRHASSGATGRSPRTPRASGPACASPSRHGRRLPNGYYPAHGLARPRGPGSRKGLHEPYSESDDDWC

With HA-tagged rat Pin1 (HA-Pin1) (enzyme), the normalized coimmunoprecipitated Pin1 protein level (relative to CaV2.1 WT) came out at 1.32 with CaV2.1-F1406C (human) and 1 in experiment [1].
